Experimental findings from patent publication US20100029573A1 (IMMATICS BIOTECHNOLOGIES, published 2010) are described below.

Assay [1] concerns the target MHC-A*02 tetramers complexed with the peptide … (human). In words: double tetramer staining, flow cytometry. (Flow cytometry measures light scatter and fluorescence of single cells or particles in a stream.)
The target of assay [2] is T1, HLA-B*0702 (human).
T1 construct: MHC class I molecule without the peptide
In words: recombinant B*0702 complexed with peptide, tetramer and microspheres. From the text:
Predetermined avidity of human CD8 T cells expanded on calibrated MHC/anti-CD28-coated microspheres. J. Immunol. […] Each dot represents the percentage of tetramer+among CD8+ lymphocytes from one well.

Assay [3] addresses T1, HLA-B*0702. In words: peptide-pulsed KM22 cells; recombinant B*0702 tetramers made with the peptide.
Experimental: For the CTL assays, KM22 and JY tumor cell lines were used as target cells. Peptide-pulsed cells were pulsed with 50 μg/mL peptide for 2 hours. […] Then, 10⁴ cells/well were added to a 96-well round bottom plate. Various numbers of CTL were added to obtain an end volume of 200 μL, with subsequent incubation for 4 hrs at 37° C. Then, supernatants (500 μL/well) were harvested and counted in a beta-plate counter. Specific lysis was calculated in percent as follows: 100×(experimental release−spontaneous release/maximum release−spontaneous release). Each, spontaneous and maximum release were determined in presence of either medium or 2% Triton X-100.
Cell lines KM22 and JY are HLA-B*07 positive.

The molecule “CD8-positive T cells stimulated with RGS-5 peptide …/MHC-A*02 tetramer complexes” displayed a percent of stimulated cells binding the tetramer in assay [1] of 8%.

Turning to “CD8-positive T cells stimulated with melan-A peptide/MHC-A*02 tetramer complexes”, the percent of stimulated cells binding the tetramer in assay [1] is 19.3%.

B1: IARNLTQQL (peptide)
peptide: IARNLTQQL
notes: also called ADFP
As for B1, in the assay with HLA-B*0702 [2], the binding result was “binds”.

B2: FPSLREAAL (peptide)
peptide: FPSLREAAL
notes: also called MAGEA1; MAGE-1
Consider B2, for which, in the assay with HLA-B*0702 [3], the binding result is recorded as “binds”.
